target: folate receptor alpha (FRα) on cells (human, UniProt P15328 25-234); assay: cell-based or functional assay
Sequence (P15328 25-234): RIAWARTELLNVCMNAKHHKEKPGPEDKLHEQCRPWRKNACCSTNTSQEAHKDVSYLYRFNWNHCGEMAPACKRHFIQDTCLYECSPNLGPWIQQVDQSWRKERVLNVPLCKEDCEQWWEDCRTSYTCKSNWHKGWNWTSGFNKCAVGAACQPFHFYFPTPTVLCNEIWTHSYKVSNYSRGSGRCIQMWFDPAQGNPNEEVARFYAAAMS

Binder	IC50, in vitro cytotoxicity (WST-8, 5 days), Igrov-1 cells, +Block [nM]	IC50, in vitro cytotoxicity (WST-8, 5 days), Igrov-1 cells, ADC [nM]	IC50, in vitro cytotoxicity (WST-8, 5 days), Jeg-3 cells, +Block [nM]	IC50, in vitro cytotoxicity (WST-8, 5 days), Jeg-3 cells, ADC [nM]	IC50, in vitro cytotoxicity (WST-8, 5 days), KB cells, +Block [nM]	IC50, in vitro cytotoxicity (WST-8, 5 days), KB cells, ADC [nM]	IC50, in vitro cytotoxicity (WST-8, 5 days), SKOV-6 cells, +Block [nM]	IC50, in vitro cytotoxicity (WST-8, 5 days), SKOV-6 cells, ADC [nM]
Mov19v1.6-GMBS-dAlalAla-PAB-DM1 (conjugate 4b) (antibody, human IgG1, kappa, V domains shown, D-Ala-L-Ala-PAB-DM1 linked through GMBS, about 3.5 DM/Ab) VH: QVQLVQSGAEVVKPGASVKISCKASGYTFTGYFMNWVKQSPGQSLEWIGRIHPYDGDTFYNQKFQGKATLTVDKSSNTAHMELLSLTSEDFAVYYCTRYDGSRAMDYWGQGTTVTVSS VL: DIVLTQSPLSLAVSLGQPAIISCKASQSVSFAGTSLMHWYHQKPGQQPRLLIYRASNLEAGVPDRFSGSGSKTDFTLTISPVEAEDAATYYCQQSREYPYTFGGGTKLEIKR	20	0.3	10	0.2	> 50	0.2	10	0.9
conjugate 17g (antibody, human IgG1, kappa, V domains shown, thio-peptide-maytansinoid 14g linked through sulfo-GMBS to antibody amines (Example 4)) VH: QVQLVQSGAEVVKPGASVKISCKASGYTFTGYFMNWVKQSPGQSLEWIGRIHPYDGDTFYNQKFQGKATLTVDKSSNTAHMELLSLTSEDFAVYYCTRYDGSRAMDYWGQGTTVTVSS VL: DIVLTQSPLSLAVSLGQPAIISCKASQSVSFAGTSLMHWYHQKPGQQPRLLIYRASNLEAGVPDRFSGSGSKTDFTLTISPVEAEDAATYYCQQSREYPYTFGGGTKLEIKR	> 50	3	> 50	0.5	> 50	0.3	> 50	> 10
conjugate 17i (antibody, human IgG1, kappa, V domains shown, thio-peptide-maytansinoid 14i linked through sulfo-GMBS to antibody amines (Example 4)) VH: QVQLVQSGAEVVKPGASVKISCKASGYTFTGYFMNWVKQSPGQSLEWIGRIHPYDGDTFYNQKFQGKATLTVDKSSNTAHMELLSLTSEDFAVYYCTRYDGSRAMDYWGQGTTVTVSS VL: DIVLTQSPLSLAVSLGQPAIISCKASQSVSFAGTSLMHWYHQKPGQQPRLLIYRASNLEAGVPDRFSGSGSKTDFTLTISPVEAEDAATYYCQQSREYPYTFGGGTKLEIKR	> 50	50	> 50	0.7	> 50	0.3	> 50	> 10
conjugate 17h (antibody, human IgG1, kappa, V domains shown, thio-peptide-maytansinoid 14h linked through sulfo-GMBS to antibody amines (Example 4)) VH: QVQLVQSGAEVVKPGASVKISCKASGYTFTGYFMNWVKQSPGQSLEWIGRIHPYDGDTFYNQKFQGKATLTVDKSSNTAHMELLSLTSEDFAVYYCTRYDGSRAMDYWGQGTTVTVSS VL: DIVLTQSPLSLAVSLGQPAIISCKASQSVSFAGTSLMHWYHQKPGQQPRLLIYRASNLEAGVPDRFSGSGSKTDFTLTISPVEAEDAATYYCQQSREYPYTFGGGTKLEIKR	> 50	30	> 50	0.5	> 50	0.4	> 50	> 10
M9346A-sGMBS-LDL-DM (conjugate 17c) (antibody, human IgG1, kappa, V domains shown, maytansinoid LDL-DM (compound 14c, L-Ala-D-Ala-L-Ala) linked through sulfo-GMBS to antibody amines, 3.7 mol LDL-DM/mol antibody) VH: QVQLVQSGAEVVKPGASVKISCKASGYTFTGYFMNWVKQSPGQSLEWIGRIHPYDGDTFYNQKFQGKATLTVDKSSNTAHMELLSLTSEDFAVYYCTRYDGSRAMDYWGQGTTVTVSS VL: DIVLTQSPLSLAVSLGQPAIISCKASQSVSFAGTSLMHWYHQKPGQQPRLLIYRASNLEAGVPDRFSGSGSKTDFTLTISPVEAEDAATYYCQQSREYPYTFGGGTKLEIKR	> 50	7	> 50	0.6	> 50	0.3	> 50	> 10

— patent US20180296694A1 (IMMUNOGEN, published 2018)
